# From patent US6562613
# Test system: series of eight synthetic peptides with sequences found in and around the C-proteinase cleavage sites of -Ala-Asp- and -Gly-Asp- in the four pro-alpha chains of types I, II and III procollagen
substance,measurement,value
C-proteinase (enzyme used on the synthetic peptide substrates; source not stated),"cleavage of synthetic peptides, HPLC followed by laser desorption mass spectrometry",four of the eight propeptides were specifically and completely cleaved by the enzyme
